Laboratory results: patent EP4714976A1 (Sunshine Lake Pharma Co., Ltd., dated 2026)
Numbering of substitutions follows the chain as printed.

B1: 1A3 scFv displayed on phage (scFv)
scFv: QVQLQQPGAELVKPGASVKMSCKASGYTFASYNLHWVKQTPGQGLEWIGLIYPENGDTSYNQKFKGKATLTADKSSSTAYIQLSSLTSEDSAVYFCARGGFDYWGQGTTLTVSQGGGGSGGGGSGGGGSDIQMTQSPASLSASVGETVTITCGASENIYGALNWYQRKQGKSPQLLIYGATNLADGMSSRFSGSGSGRQYSLKISSLHPDDVATYYCQNVLSTPYTFGGGTKLEIK
B2: 3D7 scFv displayed on phage (scFv)
scFv: QVQLQQSGAELVKPGASVKMSCKASGYTFSFYNMHWVKRTPGRGLEWIGLIYPDNGDTSYNQKFKGKATLTADTSSSTAYMQLSSLTSEDSAVYYCARGGLDYWGQGTSLTVSSGGGGSGGGGSGGGGSEIVLTQSPASLAVSLGQRATISCKASQSVDYDGDSYMNWYQQKPGQPPKLLIYGISNRFSGVPDRFSGSGSGTDFTLKISTIKPEDLGMYYCLQGTHQPYTFGGGTKLEIK
B3: 3B4 scFv-Fc (Fc fusion)
chain: EVQLQQSGADLVKPGASVKMSCKASGYTFSYYNMHWVRRTPGQGLEWIGLIYPDNGDTSYNQKFKGKATLTADTSSSTAYMQLSSLTSEDSAVYYCARGGLDYWGQGTTLTVSSGGGGSGGGGSGGGGSDIQMIQSPASMSASVGETVTITCGASENIYGALNWYQRKQGKSPQLLIYGATNLADGMSSRFSGSGSGRQYSLKISSLHPDDVATYYCQNVLSTPYTFGGGTKLEMKESKYGPPCPPCPAPEAAGGPSVFLFPPKPKDTLMISRTPEVTCVVVDVSQEDPEVQFNWYVDGVEVHNAKTKPREEQFNSTYRVVSVLTVLHQDWLNGKEYKCKVSNKGLPSSIEKTISKAKGQPREPQVYTLPPSQEEMTKNQVSLTCLVKGFYPSDIAVEWESNGQPENNYKTTPPVLDSDGSFFLYSKLTVDKSRWQEGNVFSCSVMHEALHNHYTQKSLSLSLG
notes: scFv-Fc dimer
B4: 3E3 scFv-Fc (Fc fusion)
chain: QVQLQQPGAVLVKPGASVRMSCKASGYTFPYYNVHWVKRTPGQGLEWIGLIYPDNGDTSYNQKFTGKATLTADTSSSTAYMQLSSLTSEDSAVYYCARGGLDYWGQGTTLTVSAGGGGSGGGGSGGGGSDVQITQSPASLSASVGETVTITCGASENIYGALNWYQRKQGKSPQLLIYGATNLADGMSSRFSGSGSGRQYSLKISSLHPDDVATYYCQNVLSTPYTFGGGTKLEIKESKYGPPCPPCPAPEAAGGPSVFLFPPKPKDTLMISRTPEVTCVVVDVSQEDPEVQFNWYVDGVEVHNAKTKPREEQFNSTYRVVSVLTVLHQDWLNGKEYKCKVSNKGLPSSIEKTISKAKGQPREPQVYTLPPSQEEMTKNQVSLTCLVKGFYPSDIAVEWESNGQPENNYKTTPPVLDSDGSFFLYSKLTVDKSRWQEGNVFSCSVMHEALHNHYTQKSLSLSLG
notes: scFv-Fc dimer
B5: 3D6 scFv-Fc (Fc fusion)
chain: QVQLQQSGAELVKPGASVKMSCKASGYTFRYYNMHWVKRTPGQGLEWIGLIYPDNGDTSYNQKFKGKATLTADTSSSTAYMQLSSLTSEDSAVYYCARGGLDYWGQGTSLTVSSGGGGSGGGGSGGGGSDIQMTQSPASLSVSVGETVTITCRASENIYSNLAWYQQKQGKSPQLLVYNAKTLADGVPSRFSGSGSGTQYSLKINSLQPEDFGSYYCQHFWSTPFTFGSGTKLELKESKYGPPCPPCPAPEAAGGPSVFLFPPKPKDTLMISRTPEVTCVVVDVSQEDPEVQFNWYVDGVEVHNAKTKPREEQFNSTYRVVSVLTVLHQDWLNGKEYKCKVSNKGLPSSIEKTISKAKGQPREPQVYTLPPSQEEMTKNQVSLTCLVKGFYPSDIAVEWESNGQPENNYKTTPPVLDSDGSFFLYSKLTVDKSRWQEGNVFSCSVMHEALHNHYTQKSLSLSLG
notes: scFv-Fc dimer
B6: 1C10 scFv-Fc (Fc fusion)
chain: B5 chain with Q132V, V142A, E156G, Y159H, S160N, N161Y, F225Y, S229G, L235M
notes: scFv-Fc dimer
B7: 3A8 scFv-Fc (Fc fusion)
chain: QVQLQQSGAELVKPGASVKMSCKASGYTFTIYNIHWVRQTPGQGLEWIGLIYPDNGDTSYNQKFKAKATLTADKSSSTAYMQLSSLTSEDSAVYYCARGGFDYWGQGTSLTVSSGGGGSGGGGSGGGGSDIVMTQSQKFMSTSVGDRVSVTCKASQNVGTNVAWYQQKPGQSPKALIYSASYRYSGVPDRFTGSGSGTDFTLTISNVQAEDLADYFCQQHYSTPYTFGGGTKLEMKESKYGPPCPPCPAPEAAGGPSVFLFPPKPKDTLMISRTPEVTCVVVDVSQEDPEVQFNWYVDGVEVHNAKTKPREEQFNSTYRVVSVLTVLHQDWLNGKEYKCKVSNKGLPSSIEKTISKAKGQPREPQVYTLPPSQEEMTKNQVSLTCLVKGFYPSDIAVEWESNGQPENNYKTTPPVLDSDGSFFLYSKLTVDKSRWQEGNVFSCSVMHEALHNHYTQKSLSLSLG
notes: scFv-Fc dimer
B8: 3H9 scFv-Fc (Fc fusion)
chain: EIQLQQSGAELVKPGASVKMSCKASGYTFSFYNMHWVKRTPGQGLEWIGLIYPDNGDTSYNQKFKGKATLTADTSSSTAYMQLSSLTSEDSAVYYCARGGLDYWGQGTTLTVSSGGGGSGGGGSGGGGSDIVLTQSPASLSVSVGETVTITCRASENIYSNLAWYQQKQGKSPQLLVYAATNLADGVPSRFSGSGSGTQYSLKINSLQSEDFGSYYCQHFWGTPYTFGGGTKLELKESKYGPPCPPCPAPEAAGGPSVFLFPPKPKDTLMISRTPEVTCVVVDVSQEDPEVQFNWYVDGVEVHNAKTKPREEQFNSTYRVVSVLTVLHQDWLNGKEYKCKVSNKGLPSSIEKTISKAKGQPREPQVYTLPPSQEEMTKNQVSLTCLVKGFYPSDIAVEWESNGQPENNYKTTPPVLDSDGSFFLYSKLTVDKSRWQEGNVFSCSVMHEALHNHYTQKSLSLSLG
notes: scFv-Fc dimer
B9: 1G6 scFv-Fc (Fc fusion)
chain: EIQLQQSGAELVKPGASVKMSCKASGYTFRYYNMHWVKRTPGQGLEWIGLIYPDNGDTSYNQKFKGKATLTADTSSSTAYMQLSSLTSEDSAVYYCARGGLDYWGQGTSLTVSSGGGGSGGGGSGGGGSNIVMTQSHKFMSTSVGDRVSITCKASQDVNTDVAWYQQKPGQSPKLLIYSASYRYTGVPTRFTGSGSGTDFTFTISGVQAEDLADYYCQQHYNTPYTFGGGTKLELKESKYGPPCPPCPAPEAAGGPSVFLFPPKPKDTLMISRTPEVTCVVVDVSQEDPEVQFNWYVDGVEVHNAKTKPREEQFNSTYRVVSVLTVLHQDWLNGKEYKCKVSNKGLPSSIEKTISKAKGQPREPQVYTLPPSQEEMTKNQVSLTCLVKGFYPSDIAVEWESNGQPENNYKTTPPVLDSDGSFFLYSKLTVDKSRWQEGNVFSCSVMHEALHNHYTQKSLSLSLG
notes: scFv-Fc dimer
B10: 3C7-VH2-VL1 (antibody, human IgG1, kappa, V domains shown)
VH: QVQLVQSGAEVKKPGASVKVSCKASGYIFRNYYIHWVRQAPGQGLEWMGAIYPDNGDTSYNQRFKVRATLTADTSTSTVYMELSSLRSEDTAVYYCARAFTYWGQGTTVTVSS
VL: DIQMTQSPSSLSASVGDRVTITCGASENIYGALNWYQQKPGKAPKLLIYGATNLADGVPSRFSGSGSGTDYTLTISSLQPEDVATYYCQNVLSTPYTFGGGTKVEIKR
notes: humanized IgG1
B11: 3C7-VH2-VL3 (antibody, human IgG1, kappa, V domains shown)
VH: B10 VH
VL: B10 VL with Q38R, A43S, V104L
notes: humanized IgG1
B12: 3C7-VH3-VL0 (antibody, human IgG1, kappa, V domains shown)
VH: B10 VH with R38K
VL: B10 VL with G24R, Y71F, V83F
notes: humanized IgG1
B13: 3C7-VH3-VL1 (antibody, human IgG1, kappa, V domains shown)
VH: B10 VH with R38K
VL: B10 VL
notes: humanized IgG1
B14: 3C7-VH3-VL2 (antibody, human IgG1, kappa, V domains shown)
VH: B10 VH with R38K
VL: B10 VL with Q38R, V83F, V104L
notes: humanized IgG1
B15: 3C7-VH3-VL3 (antibody, human IgG1, kappa, V domains shown)
VH: B10 VH with R38K
VL: B10 VL with Q38R, A43S, V104L
notes: humanized IgG1

Target: T1, extracellular domain of FGFR2c protein (Example 1) (UniProt P21802 22-377)
T1 construct: extracellular domain
T1 sequence (P21802 22-377): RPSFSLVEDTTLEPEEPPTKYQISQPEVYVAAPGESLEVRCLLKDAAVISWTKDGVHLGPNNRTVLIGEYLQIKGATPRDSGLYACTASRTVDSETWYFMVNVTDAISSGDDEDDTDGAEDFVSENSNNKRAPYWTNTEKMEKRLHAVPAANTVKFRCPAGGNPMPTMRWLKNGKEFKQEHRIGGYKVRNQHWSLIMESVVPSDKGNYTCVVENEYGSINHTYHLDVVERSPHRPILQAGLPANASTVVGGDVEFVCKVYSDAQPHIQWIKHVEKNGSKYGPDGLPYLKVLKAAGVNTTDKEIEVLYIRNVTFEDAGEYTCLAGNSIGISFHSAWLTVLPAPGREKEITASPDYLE
Assay: phage ELISA

Row | Binder | OD (450 nm) value
1 | B1 | 0.212
2 | B2 | 0.037

Target: T2, FGFR2b on KATO III cells (human, UniProt P21802-3 22-822)
T2 construct: whole, on cells; also called KATO III cells that overexpress FGFR2b
T2 sequence (P21802 other isoform, or with tags, fused parts or gaps): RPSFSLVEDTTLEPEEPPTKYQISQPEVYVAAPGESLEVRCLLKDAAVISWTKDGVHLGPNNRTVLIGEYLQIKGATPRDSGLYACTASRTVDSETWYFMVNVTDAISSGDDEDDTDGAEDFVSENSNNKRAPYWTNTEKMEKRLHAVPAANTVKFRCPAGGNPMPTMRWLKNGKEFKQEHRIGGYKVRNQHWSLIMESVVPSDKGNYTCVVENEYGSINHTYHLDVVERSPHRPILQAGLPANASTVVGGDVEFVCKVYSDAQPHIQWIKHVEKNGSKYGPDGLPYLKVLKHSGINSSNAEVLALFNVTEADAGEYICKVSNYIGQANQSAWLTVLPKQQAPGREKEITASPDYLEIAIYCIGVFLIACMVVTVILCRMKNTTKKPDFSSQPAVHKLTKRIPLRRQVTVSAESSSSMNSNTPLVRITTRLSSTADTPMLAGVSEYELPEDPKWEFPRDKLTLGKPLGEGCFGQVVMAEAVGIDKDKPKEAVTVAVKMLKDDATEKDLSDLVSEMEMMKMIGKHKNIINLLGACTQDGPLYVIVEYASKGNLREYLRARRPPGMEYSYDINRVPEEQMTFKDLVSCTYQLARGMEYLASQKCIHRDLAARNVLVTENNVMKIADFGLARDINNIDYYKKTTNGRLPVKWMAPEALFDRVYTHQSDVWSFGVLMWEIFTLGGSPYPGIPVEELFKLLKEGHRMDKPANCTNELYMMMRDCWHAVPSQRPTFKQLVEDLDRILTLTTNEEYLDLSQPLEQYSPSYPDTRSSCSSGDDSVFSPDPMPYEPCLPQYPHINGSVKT
Assay: flow cytometry, KATO III cells

Row | Binder | EC50 [µg/mL]
3 | B3 | 0.168
4 | B4 | 0.376
5 | B5 | 0.136
6 | B6 | 0.152
7 | B7 | 0.199
8 | B8 | 0.161
9 | B9 | 0.186

Target: T3, human FGFR2b (Kaixia Biotechnology, catalog number FGR-HM1BB) (human, UniProt P21802-3 22-378)
T3 construct: extracellular domain; bought; also called hFGFR2b; human FGFR2b protein
T3 sequence (P21802 other isoform, or with tags, fused parts or gaps): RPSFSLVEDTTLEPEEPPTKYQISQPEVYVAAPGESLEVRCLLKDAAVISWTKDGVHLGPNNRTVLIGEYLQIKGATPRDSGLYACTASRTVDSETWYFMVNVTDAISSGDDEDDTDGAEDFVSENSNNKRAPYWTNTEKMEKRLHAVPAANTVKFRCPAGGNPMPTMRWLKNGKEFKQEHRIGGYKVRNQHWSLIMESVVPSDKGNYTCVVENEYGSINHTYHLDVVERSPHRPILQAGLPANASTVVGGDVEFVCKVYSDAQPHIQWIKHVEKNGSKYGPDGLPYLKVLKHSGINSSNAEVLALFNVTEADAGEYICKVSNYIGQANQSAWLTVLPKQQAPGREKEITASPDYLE
Assay: BLI, antibody on AHC2 sensor

Row | Binder | Kd [nM] | koff [s⁻¹] | kon [M⁻¹ s⁻¹]
10 | B10 | 2.92 | 0.000718 | 246000
11 | B11 | 2.77 | 0.000754 | 272000
12 | B12 | 2.51 | 0.000831 | 331000
13 | B13 | 2.46 | 0.00106 | 429000
14 | B14 | 2.48 | 0.000829 | 334000
15 | B15 | 2.43 | 0.000777 | 320000

Target: T4, recombinant cynomolgus monkey FGFR2b (cynomolgus monkey)
T4 construct: extracellular domain; bought; also called cynomolgus macaque FGFR2b
Assay: ELISA, antibody 1ug/mL

Row | Binder | OD (450 nm) value
16 | B3 | 3.32
17 | B4 | 3.09
18 | B5 | 3.4
19 | B6 | 3.3
20 | B8 | 3.29
21 | B9 | 3.24

Target: FGFR2c (acro) (UniProt P21802 22-377)
Sequence (P21802 22-377): as the sequence (P21802 22-377) above
Assay: ELISA, antibody 10 µg/mL

Row | Binder | OD (450 nm) value
22 | B3 | 0.327
23 | B5 | 0.542
24 | B6 | 0.553
25 | B8 | 0.45

Target: T3, human FGFR2b (Kaixia Biotechnology, …)
Assay: BLI, antibody on AHC2 sensor
Remark: another data set of the same source

Row | Binder | Kd [nM] | koff [s⁻¹] | kon [M⁻¹ s⁻¹]
26 | B3 | 6.28 | 0.00195 | 311000
27 | B4 | 8.18 | 0.00184 | 225000
28 | B5 | 15 | 0.00114 | 75900
29 | B6 | 11.1 | 0.00278 | 250000
30 | B7 | 3.48 | 0.0009 | 259000
31 | B8 | 5.69 | 0.00152 | 267000
32 | B9 | 3.97 | 0.00149 | 374000

Target: T2, FGFR2b on KATO III cells
Assay: flow cytometry, KATO III cells
Remark: another data set of the same source

Row | Binder | EC50 [µg/mL]
33 | B10 | 0.302
34 | B11 | 0.572
35 | B12 | 0.624
36 | B13 | 0.446
37 | B14 | 0.523
38 | B15 | 0.536

Target: T3, human FGFR2b (Kaixia Biotechnology, …)
Assay: ELISA, FGFR2b coated at 1 µg/ml

Row | Binder | EC50 [µg/mL]
39 | B3 | 0.0166
40 | B4 | 0.0273
41 | B5 | 0.0369
42 | B6 | 0.0159
43 | B7 | 0.0278
44 | B8 | 0.0278
45 | B9 | 0.0235
